# Tests used:
# [1] = molecular target: CyPet-(pre-SUMO1)-YPet (human) (UniProt P63165)
# [2] = molecular target: CyPet-(pre-SUMO2)-YPet (human) (UniProt P61956)
# [3] = molecular target: CyPet-(pre-SUMO3)-YPet (human) (UniProt P55854)
# Sequence of UniProt P55854 (P55854 1-92): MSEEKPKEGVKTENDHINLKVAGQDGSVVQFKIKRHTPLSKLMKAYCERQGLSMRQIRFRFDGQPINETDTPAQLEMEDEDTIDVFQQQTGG
# Sequence of UniProt P61956 (P61956 whole entry): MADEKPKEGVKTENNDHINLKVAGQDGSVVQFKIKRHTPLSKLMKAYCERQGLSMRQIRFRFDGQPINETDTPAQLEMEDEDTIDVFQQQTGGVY
# Sequence of UniProt P63165 (P63165 1-97): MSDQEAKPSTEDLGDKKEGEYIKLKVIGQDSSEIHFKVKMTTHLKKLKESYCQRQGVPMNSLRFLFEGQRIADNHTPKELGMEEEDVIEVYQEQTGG
substance,measurement,setting,value
catalytic domain of SENP1 (enzyme),"Km of the SENP1 catalytic domain for CyPet-(pre-SUMO1)-YPet, FRET-based protease assay, Michaelis-Menten fit, real-time detection (internal calibration)",[1],0.14 µM
same,"Km of the SENP1 catalytic domain for CyPet-(pre-SUMO1)-YPet, FRET-based protease assay, Michaelis-Menten fit, standard curve analysis",[1],0.18 µM
same,"Km of the SENP1 catalytic domain for CyPet-(pre-SUMO2)-YPet, FRET-based protease assay, Michaelis-Menten fit, real-time detection (internal calibration)",[2],0.17 µM
same,"Km of the SENP1 catalytic domain for CyPet-(pre-SUMO2)-YPet, FRET-based protease assay, Michaelis-Menten fit, standard curve analysis",[2],0.17 µM
same,"Km of the SENP1 catalytic domain for CyPet-(pre-SUMO3)-YPet, FRET-based protease assay, Michaelis-Menten fit, real-time detection (internal calibration)",[3],1.99 µM
same,"Km of the SENP1 catalytic domain for CyPet-(pre-SUMO3)-YPet, FRET-based protease assay, Michaelis-Menten fit, standard curve analysis",[3],3.75 µM

# From article PMC3673099
